{"source": "patent US20150038682A1", "binders": {"B1": {"name": "HuYON007 IgG1 (antibody, V domains shown)", "VH": "QVTLRESGPALVKPTQTLTLTCTFSGFSLSTSGMGVSWIRQPPGKALEWLAHIYWDDDKRYNPSLKSRLTISKDTSKNQVVLTMTNMDPVDTATYYCTRRGEYGNFDYWGQGTLVTVSS", "VL": "QTVVTQEPSFSVSPGGTVTLTCRSSSGAVTTSNFANWVQQTPGQAPRGLIGGTNNRAPGVPDRFSGSLLGNKAALTITGAQADDESDYYCALWYSNHWVFGGGTKLTVL"}}, "target": "death receptor 4 (DR4) on Ramos cells (human) (UniProt O00220)", "assay": "cell-based or functional assay"}
{"binder": "B1", "values": [{"measurement": "viability of Ramos cells at 6.2 ng/ml antibody", "value": 100, "unit": "%"}, {"measurement": "viability of Ramos cells at 111 ng/ml antibody (alamar Blue, overnight)", "value": 78.3, "unit": "%"}]}
